{
  "source": "patent US7906477",
  "biological_target": "human glandular kallikrein 2 (hK2), enzymatically active (human), P20151",
  "test": "cell-based or functional assay",
  "note": "Square brackets hold non-standard residues; d marks the D form. Ends that are not written are not given here. Tyr(3-NO2) = N[C@@H](Cc1ccc(O)c([N+](=O)[O-])c1)C(=O)O; Abz = aminobenzoic acid; Dap = NC[C@H](N)C(=O)O",
  "data": [
    {"binder": "[Tyr(3-NO2)]GKAFRL[Dap]FK(Abz)-{PEGA resin}", "note": "[Y′GKAFRL-Dap-F-K′-PEGA (SEQ ID NO:53)]", "values": [
      {"measurement": "time required to generate clearly detectable fluorescence on the beads", "value": "4 to 5", "unit": "h"}
    ]}
  ]
}
